Source: US12357965B2, “Supramolecular filamentous assemblies for protein purification” (The Johns Hopkins University, priority 2017, dated 2025)
Where “and” joins values, the source holds several entries; their conditions need not be identical. Equal entries are not always repeated. Each block holds one substance with its values, some of them ahead of it. Where no end group is shown, it is not given here. The star is where a group is joined. Palmitoyl = CCCCCCCCCCCCCCCC(=O)*; Octanoyl = CCCCCCCC(=O)*; C12H21O = C12 acyl

Key:
[1] = Circular dichroism (CD) spectroscopy of peptide secondary structure; assay type: physicochemical; details: 100 μM in water at pH 7.4
[2] = TEM imaging of self-assembled nanostructures (diameter); assay type: physicochemical; details: water; for diameter of nanofibers / nanobelts (TEM): pH 7.4, aged overnight; for diameter of smallest filaments (TEM): pH 7.4, double-chain alkylated IAs
Description: Self-Assembly of Immuno-Amphiphiles and TEM Imaging Immuno-amphiphiles with 1 mM concentration were pretreated with HFIP and then dissolved in 1×PBS or deionized water and aged overnight at room temperature; 10 μL of 10 fold diluted sample was spotted on a carbon film copper grid with 400 square mesh (from EMS: Electron Microscopy Sciences) and the excess was removed with filter paper to leave a thin film of sample on the grid. After letting the sample dry for 5 minutes, 10 μL of 2% uranyl acetate was added to sample grid, and the excess was removed after 30 seconds. All samples were dried for at least 3 hours before TEM imaging.

[3] = Critical micelle concentration (CMC) measurement with Nile Red; assay type: physicochemical; details: deionized water
Description: CMC Measurement. […] The stock solution of Nile Red was initially prepared by dissolving the dye in acetone at 50 μM. 10 μL stock solution was loaded into several centrifuge tubes, where the solvent evaporates under room temperature to yield the dry mass of Nile Red. Various concentrations of the peptide solutions were prepared in deionized water, and then identical volume was added into the centrifuge tubes containing dry Nile Red and aged overnight. Fluorescent spectra of Nile Red were then monitored by a Fluorolog fluorometer (Jobin Yvon, Edison, NJ) with fixed excitation wavelength at 560 nm; emission spectra were monitored 580-720 nm. The CMC of IAs is determined by a blue-shift of the emission maximum, whereas this transition occurs as the incubated peptides exceed their CMC values.
To deeply understand the differences between single-chain and double-chain alkylated IAs with fragmented antibody binding peptides, further studies on CMC and secondary structures were conducted. The critical micelle concentration (CMC) values for various IAs were measured using Nile Red, a lipophilic dye that fluoresces depending on solvent polarity. Intensive fluorescence upon exposure to hydrophobic environments can be strongly quenched and red-shifted in aqueous media. When incubated with IAs at different concentrations in aqueous solution, Nile Red prefers to partition into the hydrophobic core offered by the self-assembled nanostructures and the CMC of IAs was determined when a blue-shift of the emission maximum occurred. […] Similarly, CMC values for C16-Helix2, Helix1-2C8, and 2C8-Helix2 can be obtained from FIG. 8B-8D.

[4] = Thioflavin T (ThT) spectroscopic assay for β-sheet; assay type: physicochemical; details: 100 μM in deionized water
Description: Thioflavin T (ThT) Spectroscopic Assay. A ThT stock solution was prepared in deionized water at 50 μM. […] The fluorescence intensity was then measured by a Fluorolog fluorometer (Jobin Yvon, Edison, NJ) with excitation at 440 nm (slit width 5 nm) and emission at 482 nm (slit width 10 nm).
To further confirm the component of secondary structures in the self-assembled IAs, a fluorescent dye Thioflavin-T (ThT) with large enhancement of its fluorescence emission upon binding to β-sheet surfaces was used to examine the existence of β-sheet secondary structures in Helix1-based IAs.

IgG = IgG (Homo sapiens, UniProt P01857); test: IgG binding and precipitation by co-assembled immunofibers with 1 M ammonium sulfate (ProA column quantification); details: mixed with IgG, 10:1 binding molecule to IgG
Description: To investigate the IgG binding and precipitation ability with the new immunofibers binding system, 100 μl of desired immunofibers solution was incubated with IgG (with a 10:1 molar ratio of C12-VVKKGG(SEQ ID NO: 9) -Z33 and IgG) for half an hour followed by adding ammonium sulfate to a final concentration of 1 M to trigger the precipitation of the immunofibers and IgG. […] After centrifuging down the precipitates and analyzing the IgG concentration in the supernatant, about 30% IgG were precipitated out from the solution. IgG concentration was quantified with a ProA column (TSKgel® Protein A-5PW, 20 μm, 35×4.6 mm) monitored at 280 nm.
To increase the IgG binding efficiency and optimal precipitation condition in the co-assembled immunofibers binding system, several factors will continue to be optimized including the ratio of binding molecules to spacer molecules, the ratio of binding molecules to IgG, salt concentration, binding and salting time, and so on. The molar ratio of C12-VVEE (SEQ ID NO: 10) and C12-VVKKGG(SEQ ID NO: 9) -Z33 and the molar ratio of C12-VVKKGG(SEQ ID NO: 9) -Z33 were firstly studied and preliminary results were shown in FIG. 21. At a 10:2 molar ratio of C12VVKKGG(SEQ ID NO: 9) -Z33 to IgG and 1 M ammonium sulfate, 5 molar ratios of C12-VVEE (SEQ ID NO: 10) to C12-VVKKGG(SEQ ID NO: 9) -Z33 (5:1, 10:1, 25:1, 50:1, 100:1) were tested. […]

Sequence of IgG (P01857 1-330 isoform P01857-1): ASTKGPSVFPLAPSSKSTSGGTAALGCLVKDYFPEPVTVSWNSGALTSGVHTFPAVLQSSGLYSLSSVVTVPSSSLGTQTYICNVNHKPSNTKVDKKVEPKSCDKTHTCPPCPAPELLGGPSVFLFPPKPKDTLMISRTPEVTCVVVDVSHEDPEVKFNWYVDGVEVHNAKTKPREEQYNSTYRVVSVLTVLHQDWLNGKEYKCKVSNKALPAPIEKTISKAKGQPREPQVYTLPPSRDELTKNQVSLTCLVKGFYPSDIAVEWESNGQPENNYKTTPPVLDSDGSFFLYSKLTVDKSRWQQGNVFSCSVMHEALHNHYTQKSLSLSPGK

Substance: FNMQQQRRFYEALHDK(SEQ ID NO: 3)-C12H21O (FNMQQQRRFYEALHDK(C12H21O); not fully specified) [Helix1-C12]
Main Secondary Structure (100 μM) [1]: β-sheet
diameter of nanofibers / nanobelts (TEM) [2]: 12.2±1.4 nm and 12.9±0.9 nm
CMC [3]: 5 to 10 µM

Substance: C12H21O- PNLNEEQRNAKIKSIRDD (SEQ ID NO: 5) (C12H21O-PNLNEEQRNAKIKSIRDD) [C12-Helix2]
Main Secondary Structure (100 μM) [1]: α-helix
CMC [3]: 2 to 5 µM

Substance: PNLNEEQRNAKIKSIRDD [Helix2]
Main Secondary Structure (100 μM) [1]: random coil

Substance: FNMQQQRRFYEALHD [Helix1]
Main Secondary Structure (100 μM) [1]: random coil

Substance: C16H31O- PNLNEEQRNAKIKSIRDD (SEQ ID NO: 5) (Palmitoyl-PNLNEEQRNAKIKSIRDD) [C16-Helix2]
Main Secondary Structure (100 μM) [1]: β-sheet
diameter of nanofibers / nanobelts (TEM) [2]: 12.4±1.7 nm
CMC [3]: 0.5 to 1 µM

Substance: FNMQQQRRFYEALHDK(SEQ ID NO: 3)-C16H31O (not fully specified (residue 16); also: C-terminal C16 acyl (C16H31O), attachment not given here) [Helix1-C16]
Main Secondary Structure (100 μM) [1]: β-sheet
ThT fluorescence emission at 482 nm compared with pure ThT solution [4]: dramatic increase of fluorescence
diameter of nanofibers / nanobelts (TEM) [2]: 9.6±1.3 nm and 9.5±1.2 nm
CMC [3]: 0.5 to 1 µM

Substance: FNMQQQRRFYEALHDK (SEQ ID NO: 3)-C8H15O (not fully specified (residue 16); also: C-terminal C8 acyl (C8H15O), attachment not given here) [Helix1-C8]
Main Secondary Structure (100 μM) [1]: Random coil
CMC [3]: >100 µM

Substance: FNMQQQRRFYEALHDKK(SEQ ID NO: 4)-(C8H15O)2 (not fully specified (residues 16, 17); also: two C-terminal octanoyl chains (C8H15O)2, places not given here) [Helix1-2C8]
Main Secondary Structure (100 μM) [1]: α-helix
diameter of nanofibers / nanobelts (TEM) [2]: 10-70 nm
diameter of smallest filaments (TEM) [2]: 11.0±1.4 nm
CMC [3]: 10 to 20 µM

precipitation after addition of ammonium sulfate (observation) (IgG): no precipitation was observed
Substance: C12-VVKKGG (SEQ ID NO: 9) -Z33: binding molecule: C12 alkyl tail at N-terminus, VVKKGG spacer between the carbon chain and binding peptide Z33

Substance: (C8H15O)2-KPNLNEEQRNAKIKSIRDD (SEQ ID NO: 7) (not fully specified (residue 1, N-terminus); printed as (C8H15O)2-KPNLNEEQRNAKIKSIRDD; also: two octanoyl chains (C8H15O)2 at N-terminal Lys, places not given here) [2C8-Helix2]
Main Secondary Structure (100 μM) [1]: α-helix
diameter of nanofibers / nanobelts (TEM) [2]: 22.9±1.5 nm
diameter of smallest filaments (TEM) [2]: 9.3±1.3 nm
CMC [3]: 5 to 10 µM

Substance: C8H15O- PNLNEEQRNAKIKSIRDD (SEQ ID NO: 5) (Octanoyl-PNLNEEQRNAKIKSIRDD) [C8-Helix2]
Main Secondary Structure (100 μM) [1]: Random coil
CMC [3]: >100 µM
